Tests used:
[1] = target: mouse TFR1 (NP_035768.1) (mouse) (UniProt Q62351); assay: flow cytometry, C57BL/6 wild-type mouse B cells stained with APC anti-human CD71
[2] = target: mouse TFR1 (NP_035768.1) (mouse) (UniProt Q62351); assay: flow cytometry, C57BL/6 wild-type bone marrow erythroid cells stained with APC anti-human CD71
[3] = target: humanized TFR1 protein (engineered mouse TFR1 after humanization) (chimeric mouse/human) (UniProt P02786); assay: flow cytometry, bone marrow erythroid cells of TFR1 gene humanized homozygous mouse stained with APC anti-human CD71
Chain of UniProt P02786 (P02786 other isoform, or with tags, fused parts or gaps mutant): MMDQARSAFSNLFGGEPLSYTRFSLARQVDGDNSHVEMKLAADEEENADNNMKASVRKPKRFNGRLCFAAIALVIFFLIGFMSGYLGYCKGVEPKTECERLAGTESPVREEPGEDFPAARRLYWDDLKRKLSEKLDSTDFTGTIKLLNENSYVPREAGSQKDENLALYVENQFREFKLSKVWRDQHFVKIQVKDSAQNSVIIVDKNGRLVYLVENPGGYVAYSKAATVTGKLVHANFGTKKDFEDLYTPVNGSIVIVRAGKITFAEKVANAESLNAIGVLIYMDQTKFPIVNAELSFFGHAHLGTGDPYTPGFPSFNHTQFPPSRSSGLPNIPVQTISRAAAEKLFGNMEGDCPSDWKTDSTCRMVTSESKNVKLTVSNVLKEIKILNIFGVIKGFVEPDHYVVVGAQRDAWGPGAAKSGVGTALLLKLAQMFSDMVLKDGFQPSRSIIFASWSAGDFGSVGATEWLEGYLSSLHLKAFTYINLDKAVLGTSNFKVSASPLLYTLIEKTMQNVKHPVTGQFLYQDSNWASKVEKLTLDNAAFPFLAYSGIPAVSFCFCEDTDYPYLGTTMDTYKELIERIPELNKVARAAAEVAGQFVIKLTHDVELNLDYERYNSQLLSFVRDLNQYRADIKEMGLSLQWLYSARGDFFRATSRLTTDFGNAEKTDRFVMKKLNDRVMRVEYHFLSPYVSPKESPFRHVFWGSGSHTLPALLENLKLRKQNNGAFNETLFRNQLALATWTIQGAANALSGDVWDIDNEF

[4] = target: humanized TFR1 protein (engineered mouse TFR1 after humanization) (chimeric mouse/human) (UniProt P02786); assay: flow cytometry, B cells of TFR1 gene humanized heterozygous mouse (carry both mouse and humanized TFR1) stained with APC anti-human CD71
[5] = target: mouse TFR1 (NP_035768.1) (mouse) (UniProt Q62351); assay: flow cytometry, C57BL/6 wild-type mouse B cells stained with PE anti-mouse CD71
[6] = target: mouse TFR1 (NP_035768.1) (mouse) (UniProt Q62351); assay: flow cytometry, C57BL/6 wild-type bone marrow erythroid cells stained with PE anti-mouse CD71
[7] = target: humanized TFR1 protein (engineered mouse TFR1 after humanization) (chimeric mouse/human) (UniProt P02786); assay: flow cytometry, bone marrow erythroid cells of TFR1 gene humanized homozygous mouse stained with PE anti-mouse CD71
[8] = target: mouse TFR1 (NP_035768.1) (mouse) (UniProt Q62351); assay: flow cytometry, B cells of TFR1 gene humanized heterozygous mouse (carry both mouse and humanized TFR1) stained with PE anti-mouse CD71

Chain of UniProt Q62351 (Q62351 whole entry): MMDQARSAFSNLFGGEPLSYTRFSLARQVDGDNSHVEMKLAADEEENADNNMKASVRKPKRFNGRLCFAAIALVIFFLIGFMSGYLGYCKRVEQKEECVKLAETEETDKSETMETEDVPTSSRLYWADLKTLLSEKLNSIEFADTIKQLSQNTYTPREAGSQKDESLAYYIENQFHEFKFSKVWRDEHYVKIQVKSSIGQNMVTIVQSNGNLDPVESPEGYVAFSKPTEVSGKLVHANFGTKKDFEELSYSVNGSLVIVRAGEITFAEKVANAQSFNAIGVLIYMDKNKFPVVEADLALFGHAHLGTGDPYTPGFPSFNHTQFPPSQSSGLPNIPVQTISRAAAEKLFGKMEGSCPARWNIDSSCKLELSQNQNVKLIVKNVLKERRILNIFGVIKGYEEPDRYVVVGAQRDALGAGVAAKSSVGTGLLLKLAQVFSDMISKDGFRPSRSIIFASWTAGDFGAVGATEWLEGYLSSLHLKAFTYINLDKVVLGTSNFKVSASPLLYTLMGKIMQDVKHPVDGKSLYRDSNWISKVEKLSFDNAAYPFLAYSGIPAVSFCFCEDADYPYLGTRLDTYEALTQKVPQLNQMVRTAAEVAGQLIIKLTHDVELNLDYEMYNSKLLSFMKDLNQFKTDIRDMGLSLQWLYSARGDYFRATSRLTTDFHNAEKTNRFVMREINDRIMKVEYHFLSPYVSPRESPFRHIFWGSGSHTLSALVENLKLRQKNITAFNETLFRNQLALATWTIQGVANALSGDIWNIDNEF

| percent of B cells positive [1] [%] | percent of erythroid cells positive [2] [%] | percent of erythroid cells positive [3] [%] | percent of B cells positive [4] [%] | percent of B cells positive [5] [%] | percent of erythroid cells positive [6] [%] | percent of erythroid cells positive [7] [%] | percent of B cells positive [8] [%] | Substance |
| --- | --- | --- | --- | --- | --- | --- | --- | --- |
| 0.2 | 0.087 | 10.1 | 11.3 | – | – | – | – | APC anti-human CD71 Antibody (BioLegend, Catalog number: 334107) |
| – | – | – | – | 50.6 | 14.2 | 0.04 | 32.9 | PE anti-mouse CD71 Antibody (BioLegend, Catalog number: 113807) |
